Earlier results as cited in paper PMC7496540.
pKd: −log10 of the molar value.

Tests used:
[1] = molecular target: SSB C-terminal peptide C-terminal nine residues (Escherichia coli) (UniProt P0AGE0)
[2] = molecular target: λ exonuclease (Escherichia phage lambda) (UniProt P03697)
Chain of UniProt P03697 (P03697 whole entry): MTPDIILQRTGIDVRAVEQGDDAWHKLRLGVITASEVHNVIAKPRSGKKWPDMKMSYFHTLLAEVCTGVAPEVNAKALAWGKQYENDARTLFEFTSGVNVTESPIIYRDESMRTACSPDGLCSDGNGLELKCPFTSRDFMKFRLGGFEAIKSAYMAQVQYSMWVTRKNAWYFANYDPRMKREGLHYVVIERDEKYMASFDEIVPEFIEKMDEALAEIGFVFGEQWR

Chain of UniProt P0AGE0 (P0AGE0 whole entry, looked up): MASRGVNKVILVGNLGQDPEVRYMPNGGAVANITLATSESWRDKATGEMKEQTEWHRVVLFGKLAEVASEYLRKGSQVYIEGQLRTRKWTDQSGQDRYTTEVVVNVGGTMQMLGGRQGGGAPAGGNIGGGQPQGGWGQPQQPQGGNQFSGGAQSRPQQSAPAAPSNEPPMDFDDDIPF

Redβ (from UniProt P03698)
pKd [1]: 5.00 | pKd [2]: 5.10
